Results published in article PMC10937380.

Target: preformed E3mUU–UFC1–UFM1 complex (UniProt O94874)
Test: ITC; MicroCal PEAQ-ITC, 25 °C, 25 mM HEPES pH 7.5, 200 mM NaCl, 0.44 mM TCEP; 13 injections (19 for UFBP1 UFIM–UFM1)

- Kd: 500 nM
Substance: CDK5RAP3 (from UniProt Q96JB5 1-506) (natural protein)
